{"source": "the nanobody polyreactivity screen of Harvey et al. (2022)", "data": [{"assay": "yeast display, Sf9 membrane polyspecificity reagent, FACS + sequencing; frameworks hold sequencing errors", "in_short": "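Synthetic nanobody libraries on Saccharomyces cerevisiae BJ5465 were galactose-induced for 36–48 hours, stained 1 hour at 4 °C with 10% biotinylated, detergent-solubilized Sf9 membrane reagent and enriched on streptavidin microbeads. FACS then separated cells into low and high (top ~1%) gates by anti-HA (expression) and streptavidin (reagent binding) fluorescence. Genes were colony-PCR amplified, MiSeq 2 × 250 sequenced and CDR-length filtered. A clone's polyreactivity label is that of its gate of origin.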", "values": [{"sequence": "QVQLVESGGGLVQAGGSLRLSCAASGNIFYDYGMGWYRQAPGKERELVAGISSVDHTYYADSVKGRFTISRDNAKNTVYLQMNSLKPEDTAVYYCARDTELYVRWLDYWGQGTQVTVSS", "polyreactivity (PSR sort gate)": "low polyreactivity"}, {"sequence": "QVQLVESGGGLVQAGGSLRLSCAASGNIFYGYAMGWYRQAPGKERELVAAISGSSTYYADSVKGRFTISRDNAKNTVYLEMNSLKPEDTAVYYCAVPQYLYLQAGHGYRYYYWGQGTQVTVSS", "polyreactivity (PSR sort gate)": "high polyreactivity"}, {"sequence": "QVQLVESGGGLVQAGGSLRLSCAASGNIFYLYAMGWYRQAPGKEREFSTSYADSVKGRFTISRDNAKNTVYLQMNSLKPEDTAVYYCAAYKSRGPYYYLFDYWGQGTQVTVSS", "polyreactivity (PSR sort gate)": "low polyreactivity"}, {"sequence": "QVQLVESGGGLVQAGGSLRLSCAASGNIFYPYAMGWYRQAPGKERELVAAISWSDGSTYYADSVKGRFTISRDNAKNTVYLQMNILKPEDTAVYYCAAEAYISNYYGRDYWGQGTQVTVSS", "polyreactivity (PSR sort gate)": "high polyreactivity"}, {"sequence": "QVQLVESGGGLVQAGGSLRLSCAASGNIFYRNAIGWYRQAPGKERELVAAIRGGGSTNYADSVKGRFTISRDNAKNTVYLQMNSLKPEDTAVYYCNTVRSPPGHDYWGQGTQVTVSS", "polyreactivity (PSR sort gate)": "low polyreactivity"}, {"sequence": "QVQLVESGGGLVQAGGSLRLSCAASGNIFYTYAMGWYRPAPGKERELVAAITWSGGSTYYADSVKGRFTISRDKAKKTVYLQMNSLKPEDTAVYYCAADSLGYYYSGGYYSIYDHWGQGTQVTVSS", "polyreactivity (PSR sort gate)": "high polyreactivity"}, {"sequence": "QVQLVESGGGLVQAGGSLRLSCAASGNIFYTYAMGWYRQAPGNERELVAGISSDASTTYADSVKGRFTISRDNAKNTVYLPMKSLNPEDTAVYYCPADITGIVWYVYYYWGQGTQVTVSS", "polyreactivity (PSR sort gate)": "low polyreactivity"}, {"sequence": "QVQLVESGGGLVQAGGSLRLSCAASGNIFYVYVMGWYRQAPGKERELVASITSGASTYYADSVKGRFTISRDNAKNTVYLQMNSLKPEDTAVYYCAAEALGGAGDYSTLYIYDYWGQGTQVTVSS", "polyreactivity (PSR sort gate)": "low polyreactivity"}, {"sequence": "QVQLVESGGGLVQAGGSLRLSCAASGNIFYWYAMGWYRQAPGKEREFVAAITRSGGSTSYADSVKGRFTISRDNAKNTVYLQMNSLKPEDTAVYYCNATHWVHFQEFYSWGPGTQVTVSS", "polyreactivity (PSR sort gate)": "low polyreactivity"}, {"sequence": "QVQLVESGGGLVQAGGSLRLSCAASGNIFYYNAMGWYRQAPGKETELVADITWSGGSTYYADSVKGRFTISRDNAKNTVDLQMNSLKPEDTAVYYCADETFGYHRGRIADDYEYWGQGTQVTVSS", "polyreactivity (PSR sort gate)": "low polyreactivity"}, {"sequence": "QVQLVESGGGLVQAGGSLRLSCAASGNIISNNAMGWYRQAPGKERELVAAIDWSGGRTYYADSVKGRFTISRDNAKNNVYIQMNSLKPEDTAVYYCAAEIPFTYRGVFYEYYYWGQGTQVTLSS", "polyreactivity (PSR sort gate)": "high polyreactivity"}, {"sequence": "QVQLVESGGGLVQAGGSLRLSCAASGNILATNCMGWYRQAPGMERELVAAITFSGDTTYYADSVKGRFTISRDNAKNTVYLQMNSLKPEDTAVYYCNAVSFIVNGGYDGDYWGQGTQVTVSS", "polyreactivity (PSR sort gate)": "low polyreactivity"}, {"sequence": "QVQLVESGGGLVQAGGSLRLSCAASGNILRGYAMGWYRQAPGKERELVAAIDTRGGRTNYADSVKGRFTISRDNAKNTVYLQMNSLKPEDTAVYYCNALGYYSFGHEYWGQGTQVTVSS", "polyreactivity (PSR sort gate)": "low polyreactivity"}, {"sequence": "QVQLVESGGGLVQAGGSLRLSCAASGNILSPYTMGWYRQAPGKERELVAGISRSGGTTYYADSVKGRFTLSRDNAKTTVYLQINSLKTEDTAVYYCASGLIYGYSGYDSWGQGTQVTVSS", "polyreactivity (PSR sort gate)": "low polyreactivity"}, {"sequence": "QVQLVESGGGLVQAGGSLRLSCAASGNILSVYTMGWYRQAPGKERELVATITYSGDRTYADSVKGRFTISRDNAKKTVYLQMNSLKPEDTAVYYCNAVYYREGMDYWGQGTQVTVSS", "polyreactivity (PSR sort gate)": "low polyreactivity"}, {"sequence": "QVQLVESGGGLVQAGGSLRLSCAASGNILTTYAMGWYRQAPGKERELVAAIRWSDGSTYYADSVKGRFTISRDNAKNTVYLQMNSLKPEDTAVYYCAADYHYPTWQGGYHYGYWGQGTQVTVSS", "polyreactivity (PSR sort gate)": "high polyreactivity"}, {"sequence": "QVQLVESGGGLVQAGGSLRLSCAASGNILVENAMGWYRQAPGKERELVAVSTSGTSTYADSVKGRFTISRDNAKNSVSFQMNSLKPEDTAVYYCNARRINTLYDSWGQGTLVTVSS", "polyreactivity (PSR sort gate)": "low polyreactivity"}, {"sequence": "QVQLVESGGGLVQAGGSLRLSCAASGNIYDVYAMGWYRQAPGKERELVADIDRGGTTYADSVKGRFTISRDNAKNTVYLQMNSLKPEATAVYYCAADYVQGFGFYYQWHSDYWGQGTQVTVSS", "polyreactivity (PSR sort gate)": "low polyreactivity"}, {"sequence": "QVQLVESGGGLVQAGGSLRLSCAASGNNFGVYAMGWYRQAPGTERELVAAIRYSTVSTYYADSVKGRFTISRDNAKNTVYLQMNSLKPEDTSVYYCAAQRRRYLPGHYYYWGQGTQVTVSS", "polyreactivity (PSR sort gate)": "high polyreactivity"}, {"sequence": "QVQLVESGGGLVQAGGSLRLSCAASGNNFRYNAMVWYRQAPGKERELVAAISSVGTTNYADSVKGRFTISRDNAKNTVYLQMNSLKPEDTAVYYCAAVDYQGGYWYDYWGQGTQVTVSS", "polyreactivity (PSR sort gate)": "low polyreactivity"}, {"sequence": "QVQLVESGGGLVQAGGSLRLSCAASGNNIVINAMGWYRPAPGKERELVAAINWTGGNTYYADSVKGRFTISRDNAKNTVYLQMNSLKPEDSAVYYCAADRRWFVWGLGYWGQGTQVTVSS", "polyreactivity (PSR sort gate)": "low polyreactivity"}, {"sequence": "QVQLVESGGGLVQAGGSLRLSCAASGNTCTPNGMGWYRQAPGKEREFVAAITWSGGRTHYADSVKGRFTISRDNAKNTVYLQMNSLKPEDTAVYYCAARRSHFEYGTYSGYDYYWGQGTQVTVSS", "polyreactivity (PSR sort gate)": "high polyreactivity"}, {"sequence": "QVQLVESGGGLVQAGGSLRLSCAASGNTCYQYAMGWYRQAPGKERELVAAISSSGGSTYYADSVKGRFTISRDNAQNTVYLQMNSLKTEDTAVYYCATDKWYGYYYWGQGTQVTVSS", "polyreactivity (PSR sort gate)": "low polyreactivity"}, {"sequence": "QVQLVESGGGLVQAGGSLRLSCAASGNTFAENDMGWYRQAPGKERELVAAITYSGGDTYYADSVKGRFTISRDNAKNTVYLQMNSLKPEDTAVYYCAADNGSKEFDYWGQGTQVTVSS", "polyreactivity (PSR sort gate)": "low polyreactivity"}, {"sequence": "QVQLVESGGGLVQAGGSLRLSCAASGNTFAFNAMVWYRQAPGKEREFVAAISYSGVSTYYADSEKGRFTISRDNAKNTVYLQMNSLKPEDTAVYYCAARYGWYKYWYDYWGQGTQGTVSS", "polyreactivity (PSR sort gate)": "high polyreactivity"}, {"sequence": "QVQLVESGGGLVQAGGSLRLSCAASGNTFANYAMGWYRQAPGKERELVAAITSNGGSTYYADSVKGRFTISRDNAKNTVYLQMNSLKPEDTAVYYCAAPGAISTRSRYGPGYTYDYWGQVTQVTVSS", "polyreactivity (PSR sort gate)": "low polyreactivity"}, {"sequence": "QVQLVESGGGLVQAGGSLRLSCAASGNTFAPNAMGWYRQAPGKERELVAVISWSSGRTYYADSVKGRFTISRDNAKNTVYLQMNSLKPEDTAVYYCAARFGSGFNYWGQGTQVTVSS", "polyreactivity (PSR sort gate)": "high polyreactivity"}, {"sequence": "QVQLVESGGGLVQAGGSLRLSCAASGNTFDVYAMGWYRQAPGKEREFVARISGRVGSTYYADSVKGRFTISRDNAKYTVYLQMNSLKPEDTAVYYCNRRYQSRNMGYWGQGTQVTVSS", "polyreactivity (PSR sort gate)": "high polyreactivity"}, {"sequence": "QVQLVESGGGLVQAGGSLRLSCAASGNTFEYYVMGWYRQAPGKERELVAAITWSTGSTYYADSVKGRFTISRDNAKNTVYLQMNSLKPEDTAVYYCAALYYFIFGRPTRFDYWGLGTQVTVSS", "polyreactivity (PSR sort gate)": "low polyreactivity"}, {"sequence": "QVQLVESGGGLVQAGGSLRLSCAASGNTFEYYVMGWYRQAPGKERELVAAITWSTGSTYYADSVKGRFTISRDNAKNTVYLQMNSLKPEDTAVYYCNAAYVYYYPHYRYAPTAVDYDYWGQGTQVTVSS", "polyreactivity (PSR sort gate)": "low polyreactivity"}, {"sequence": "QVQLVESGGGLVQAGGSLRLSCAASGNTFFVYAMGWDRQAPGKERELVATITLNGGSTYYADSVKGRFTISRDNAKNTVYLQMNSLKPEDTAVYYCAVEPDVYPSWYYYVDYDYWGQGTQVTVSS", "polyreactivity (PSR sort gate)": "low polyreactivity"}, {"sequence": "QVQLVESGGGLVQAGGSLRLSCAASGNTFFVYAMGWYRQAPGKERELVADINWSTGSTYYADFVKGRFTLSRDNAKNTVYLQMNSLKPEDTAVYYCAAEAYYYVIFHGSWYTDDYWGQGTQVTVSS", "polyreactivity (PSR sort gate)": "low polyreactivity"}, {"sequence": "QVQLVESGGGLVQAGGSLRLSCAASGNTFGDYAMGWYRQAPGKERELVAAISRSGGSTSYADSVKGRFTISRDNAKNTVYLQMNSLKPEDTAVYYCAAYWQRFGYDYWGQGTQVTVSS", "polyreactivity (PSR sort gate)": "low polyreactivity"}, {"sequence": "QVQLVESGGGLVQAGGSLRLSCAASGNTFGIYAMGWYRQAPGKERELVAAISSGTSTNYADSVKGRFTISRDNAKNTVYLQMNSLKPEDTAVYYCNADDQYQDVREDYWGQGTQVTVSS", "polyreactivity (PSR sort gate)": "low polyreactivity"}, {"sequence": "QVQLVESGGGLVQAGGSLRLSCAASGNTFGRYAMGWSRQAPGKERELVASIRGSSVRTFYADSVKGRFTISRDNAKNTVYLQMNSLKPEDTAVYYCAKRGYAYPSSYDSWGQGTQVTVSS", "polyreactivity (PSR sort gate)": "high polyreactivity"}, {"sequence": "QVQLVESGGGLVQAGGSLRLSCAASGNTFGRYAMGWYRQAPGKERELVAAITKRGGTTYYADSVKGRFTISRDYAKNTVYLQMNSLKPEDTAVYDCAAKRSVLRTADYDYWGQGTQVTVSS", "polyreactivity (PSR sort gate)": "high polyreactivity"}, {"sequence": "QVQLVESGGGLVQAGGSLRLSCAASGNTFGYNAMGWYRQAPGKERELVAAISWRGGRTYYADSVKGRFTISRDHAKNTVYLQMNILKTEDTAVYYCAARRHSTRLRLTYDYWGQGTQVTVSW", "polyreactivity (PSR sort gate)": "high polyreactivity"}, {"sequence": "QVQLVESGGGLVQAGGSLRLSCAASGNTFGYNAMGWYRQAPGKERELVASITWSGGSTYYADSVKGRFTISRDNAKNTVYLQMNSLKPEDTAVYYCNADVRYGRDHWGQGTQVTVSS", "polyreactivity (PSR sort gate)": "low polyreactivity"}, {"sequence": "QVQLVESGGGLVQAGGSLRLSCAASGNTFIPNAMGWSRQAPGKETELVAAIRASGGSTYYADSVKGRFTISRDNAKNTVYLQMNSLKPEDTAVYYCNADIWYKTYDYWGQGTQVTVSS", "polyreactivity (PSR sort gate)": "low polyreactivity"}, {"sequence": "QVQLVESGGGLVQAGGSLRLSCAASGNTFIRNVMGWYRQAPGKERELVAGIRTGGSTFYADSVKGRFTISRDNAKNTVYLQMNSLKPEDTAVYYCNADVGDEGNLPYVIRPMDYWGQGTQVTVSS", "polyreactivity (PSR sort gate)": "low polyreactivity"}, {"sequence": "QVQLVESGGGLVQAGGSLRLSCAASGNTFKRYAMGRYRQAPGKERELVAAITWRGARTYYADSVKGRLTISRDNAKNTFYLQMNSLKPEDTAVYYCAADGYSGSGPYDYWGQGTQVTVSS", "polyreactivity (PSR sort gate)": "high polyreactivity"}, {"sequence": "QVQLVESGGGLVQAGGSLRLSCAASGNTFLAYVMGWYRQAPGKEREFVAAISRRDGRTYYADSVKGRFTISRDNAKNTVYLQMNSLKPEDTAVYYCNAQRHFWHLYAPSSFDYWGQGTQVTVSS", "polyreactivity (PSR sort gate)": "low polyreactivity"}, {"sequence": "QVQLVESGGGLVQAGGSLRLSCAASGNTFNIYAMGWYRQAPGKETEFVAAITVSDTSTYYADSVKGRFTISRDSAKNTVYLQMKSLKPEDTAVYYCNADWWGTYDYYYWGQGTHVTVSS", "polyreactivity (PSR sort gate)": "low polyreactivity"}]}]}
